Our source for the Kd values is paper PMC7949057, “The cytoprotective protein MANF promotes neuronal survival independently from its role as a GRP78 cofactor” (The Journal of Biological Chemistry, 2021).

The chains are these.
B2: Recombinant human MANF protein (natural protein, UniProt P55145 25-182, looked up)
chain: LRPGDCEVCISYLGRFYQDLKDRDVTFSPATIENELIKFCREARGKENRLCYYIGATDDAATKIINEVSKPLAHHIPVEKICEKLKKKDSQICELKYDKQIDLSTVDLKKLRVKELKKILDDWGETCKGCAEKSDYIRKINELMPKYAPKAASARTDL
notes: MANF, human, mature protein secreted from CHO-derived cells; also called wild-type MANF; FL-MANF; source: CHO-derived cell line (QMCF technology), purified from culture media (Q FF, SP HP, SEC)

What all share (settings): both partners purified
For test [1], the target named is T1, Recombinant hamster GRP78 protein (hamster, UniProt G3I8R9 19-654, RED-tris-NTA dye held on the His-tag).
T1 construct: GRP78 (BiP), hamster; also called BiP; full-length GRP78; not shown: His-tag, N-terminal, kept
T1 sequence (G3I8R9 19-654): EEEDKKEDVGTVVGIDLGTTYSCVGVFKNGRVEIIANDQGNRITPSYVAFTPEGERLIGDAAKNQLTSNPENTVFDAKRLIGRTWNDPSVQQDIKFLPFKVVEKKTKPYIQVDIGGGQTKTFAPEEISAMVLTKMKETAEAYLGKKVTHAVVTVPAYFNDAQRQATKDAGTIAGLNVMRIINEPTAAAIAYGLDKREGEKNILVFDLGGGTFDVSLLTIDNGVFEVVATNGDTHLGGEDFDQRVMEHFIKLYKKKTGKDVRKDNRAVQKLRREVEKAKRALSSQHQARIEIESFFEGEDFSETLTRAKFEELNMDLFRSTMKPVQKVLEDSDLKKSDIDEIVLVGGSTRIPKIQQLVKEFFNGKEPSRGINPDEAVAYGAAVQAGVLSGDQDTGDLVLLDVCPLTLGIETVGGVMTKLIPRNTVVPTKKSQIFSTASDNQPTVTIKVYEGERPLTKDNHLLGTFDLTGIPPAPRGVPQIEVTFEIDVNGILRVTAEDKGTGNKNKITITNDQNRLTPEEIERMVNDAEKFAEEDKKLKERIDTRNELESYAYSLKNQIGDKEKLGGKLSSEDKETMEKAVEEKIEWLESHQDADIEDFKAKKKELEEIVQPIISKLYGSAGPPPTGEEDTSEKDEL
In words: MST; as a4, in the presence of ADP.

In test [2] the target is T1, Recombinant hamster GRP78 protein. In words: MST; GRP78 or its variants labelled through the N-terminal His-tag, constant 20 nM; ligand titrated in 2-fold dilutions; 25 °C; MST buffer (10 mM Na-phosphate pH 7.4, 1 mM MgCl2, 3 mM KCl, 150 mM NaCl, 0.05% Tween-20); no nucleotide; for MANF with GRP78 also 0, 1, 100 or 200 uM CaCl2; fit with 1:1 stoichiometry.
For test [3] the target is unchanged. In words: MST; as a4, in the presence of AMP.
For test [4], the target named is B2. The test is described as follows: MST; GRP78 or its variants labelled through the N-terminal His-tag, constant 20 nM; ligand titrated in 2-fold dilutions; 25 °C; MST buffer (10 mM Na-phosphate pH 7.4, 1 mM MgCl2, 3 mM KCl, 150 mM NaCl, 0.05% Tween-20); no nucleotide; for MANF with GRP78 also 0, 1, 100 or 200 uM CaCl2; fit with 1:1 stoichiometry.

B1: CH1-derived substrate peptide (HTFPAVL) (peptide)
peptide: HTFPAVL
notes: peptide derived from the CH1 domain of an IgG heavy chain; also called IgG heavy chain-derived peptide; source: synthetic peptide (custom synthesis by Pepscan)
The term Kd denotes a measure of binding affinity in units of concentration. As for B1, the Kd was 120 nM in test [1] and 220 nM in test [2].
Take B2: the Kd in test [1] came to 5690 nM; in test [2] it was 380 nM; in test [3] it was 260 nM.

B3: Nucleotide-binding domain (NBD) of GRP78 (domain or fragment)
chain: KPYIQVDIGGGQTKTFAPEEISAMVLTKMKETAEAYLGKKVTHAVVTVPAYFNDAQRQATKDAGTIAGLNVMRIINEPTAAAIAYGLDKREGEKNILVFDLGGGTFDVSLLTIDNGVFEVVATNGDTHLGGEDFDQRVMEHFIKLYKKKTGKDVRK
modifications: RED-tris-NTA dye held on the His-tag
In the case of B3, in test [4], the dissociation constant Kd turned out to be 280 nM.
